Legend:
[1] = test system: T1, FRET peptide substrate EDANS-A-L-E-V-L-F-Q/G-P-K-DABCYL
T1 sequence: ALEVLFXPK

[2] = test system: FTC-casein

| Substance | fluorescent signal upon cleavage of the FRET peptide substrate in microwells (18 hours, 100 µg/mL peptide) [1] | fluorescent signal in trypsin cleavage assay in microwells (0.5 µg/ml trypsin, 10 µg/ml FTC-casein, 1 and 18 hours) [2] | fluorescent signal in trypsin cleavage assay in microwells (0.05, 0.5 and 5 µg/ml trypsin, 10 µg/ml FTC-casein, 1 hour) [2] |
| --- | --- | --- | --- |
| human rhinovirus 3C protease | The secreted enzyme successfully cleaved the substrate, resulting in a fluorescent signal |  |  |
| trypsin |  | the intensity of the observed fluorescent signal was dependent on the time of incubation | the intensity of the observed fluorescent signal was dependent on the concentration of trypsin in the microwells |

— US20210102933
